Reference: paper PMC1150889 (The EMBO Journal, 2005)

Biological target: P22 tailspike protein gp9 (bacteriophage P22, UniProt P12528 1-667)
Test: cryo-EM structure

B1: P22 tail accessory (head completion) protein gp4 (natural protein, bacteriophage P22, UniProt P26746 1-166, looked up)
chain: MQIKTKGDLVRAALRKLGVASDATLTDVEPQSMQDAVDDLEAMMAEWYQDGKGIITGYVFSDDENPPAEGDDHGLRSSAVSAVFHNLACRIAPDYALEATAKIIATAKYGKELLYKQTAISRAKRAPYPSRMPTGSGNSFANLNEWHYFPGEQNADSTTPHDEGNG
B1: binds.
